Experimental findings from patent publication US20100278838A1, “EPHA2 MONOCLONAL ANTIBODIES AND METHODS OF USE THEREOF” (MEDIMMUNE, LLC, priority 2002, published 2010) are described below.

“Also recorded” adds a separate entry of the source.

Assay [1] concerns cancer cell colonies already formed in soft agar. In words: Elimination of cancer cell colonies already formed in soft agar. Format: cell-based. The conditions noted are these: antibodies added on third day; data not shown. On the procedure: The ability of the antibodies of the invention to inhibit cancer cell formation in soft agar was assayed as described in Zelinski et al. (2001, Cancer Res. 61:2301-6). Briefly, cells were suspended in soft agar for 7 days at 37° C. in the presence of purified antibody or control solution (PBS). Antibodies were administered at the time of suspension in both bottom and top agar solutions. Colony formation was scored microscopically using an Olympus CK-3 inverted phase-contrast microscope outfitted with a 40× objective. Clusters containing at least three cells were scored as a positive.
The ability of the antibodies of the invention to eliminate cancer cell colonies already formed in soft agar was assayed. Assay methods were similar to those described above except that antibodies were not added to the cancer cells until the third day of growth in soft agar.

The next assay relates to EphA2. The experiment in a line: EphA2 degradation / protein level in MDA-MB-231 cells (western blot). Format: cell-based. The following applies: MDA-MB-231 monolayers, single dose 5 μg/ml, 37° C. As to the method:
Monolayers of MDA-MB-231 cells were incubated in the presence of a single dose of 5 μg/ml (A, C) Eph099B-208.261 or (B, D) EA2 for the indicated time at 37° C. Cell lysates were then resolved by SDS-PAGE and subjected to western blot analysis with an EphA2-specific antibody (A, B). The membranes were stripped and re-probed with a β-catenin-specific antibody as a loading control (C, D).
Monolayers of MDA-MB-231 cells were incubated in the presence of a single dose of 5 μg/ml Eph099B-233.152 at 37° C. Cell lysates were then immunoprecipitated with D7 (an EphA2-specific antibody), resolved by SDS-PAGE and subjected to western blot analysis with (A) a phosphotyrosine-specific antibody or (B) an EphA2-specific antibody.
Monolayers of MDA-MB-231 cells were incubated in the presence of EphA2 agonistic antibodies at 37° C. Cell lysates were then resolved by SDS-PAGE and subjected to western blot analysis with an EphA2-specific antibody (D7). […] Some membranes were stripped and re-probed with a β-catenin-specific antibody as a loading control (FIGS. 3C-3D). […] Decreased EphA2 expression is due, in part, to deceased mRNA expression levels in response to EphA2 protein degradation caused by agonistic antibody binding (data not shown).
Western blot analyses and immunoprecipitations were performed as described previously (Zantek et al., 1999, Cell Growth Diff. 10:629-38, which is incorporated by reference in its entirety). Briefly, detergent extracts of cell monolayers were extracted in Tris-buffered saline containing 1% Triton X-100 (Sigma, St. Louis, Mo.). After measuring protein concentrations (BioRad, Hercules, Calif.), 1.5 mg of cell lysate was immunoprecipitated, resolved by SDS-PAGE and transferred to nitrocellulose (PROTRAN™, Schleicher and Schuell, Keene, N.H.). Antibody binding was detected by enhanced chemiluminescence (Pierce, Rockford, Ill.) and autoradiography (Kodak X-OMAT; Rochester, N.Y.).
On the technique in general: In western blotting, separated proteins are transferred to a membrane and probed.

The target of another assay is T1, immobilized EphA2-Fc (Homo sapiens, UniProt P29317).
T1 construct: consisted of the extracellular domain of human EphA2 linked to human immunoglobulin
The experiment in a line: BIACORE surface plasmon resonance kinetic analysis (Koff). Format: binding. The following applies: FIG. 15. The source says:
FIG. 15: Kinetic analysis of EphA2 monoclonal antibodies. BIACORE™ (surface plasmon resonance-based) assays were used to assay the kinetics of EphA2 monoclonal antibody binding to immobilized EphA2-Fc. Eph099B-208.261 is indicated by a solid line, Eph099B-233.152 is indicated by a dotted line, EA2 is indicated by a dashed line, and the negative control is indicated by squares.
The surface plasmon resonance-based BIACORE™ assay was used to measure the Koff rates of the monoclonal antibodies of the invention. IgG present in the hybridoma supernatant was used for measurement.
EphA2-Fc was immobilize to a surface on a CM5 sensorchip using a standard amine (70 μl of a 1:1 mix of NHS/EDC) coupling chemistry. Briefly, a 400 nM solution of EphA2-Fc in 10 mM NaOAc, pH4, was then injected over the activated surface to a density of 1000-1100 RU's. Unused reactive esters were subsequently “capped” with a 70 μl injection of 1M Et-NH2. Similarly, an activated and “capped” control surface was prepared on the same sensor chip without protein to serve as a reference surface.
A 250 μl injection of each of the EphA2 hybridoma supernatants was made over both the EphA2-Fc and control surfaces, and the binding responses were recorded. These supernatants were used undiluted. Following each injection, at least 10 min. of dissociation phase data was collected. […]
Background: SPR reads the build-up and loss of mass on a sensor chip optically.

In a further assay the target is T2, EphA2-Fc (Homo sapiens, UniProt P29317).
T2 construct: consisted of the extracellular domain of human EphA2 linked to human immunoglobulin
In words: Competitive ELISA: inhibition of labeled EA2 binding to EphA2-Fc. The following applies: unlabeled antibody, increasing concentrations; FIG. 1. As to the method: The ability of labeled EA2 monoclonal antibody to bind EphA2-Fc was assayed by competitive ELISA in presence of either unlabeled monoclonal antibodies EA2 or Eph099B-208.261. Ratios of unlabeled to labeled antibody used in the assay are indicated on the x-axis. EA2 is indicated by diamonds and Eph099B-208.261 is indicated by squares.
Monoclonal antibodies against the extracellular domain of EphA2 were generated using the fusion protein EphA2-Fc. This fusion protein consisted of the extracellular domain of human EphA2 linked to human immunoglobulin to facilitate secretion of the fusion protein.
Supernatants from bulk culture hybridomas were screened for immunoreactivity against EphA2 (Table 6, column 4) using standard molecular biological techniques (e.g., ELISA immunoassay). Supernatants were further screened for the ability to inhibit an EphA2 monoclonal antibody (EA2; ATCC deposit no. PTA-4380; see co-pending U.S. patent application Ser. No. 10/436,783, entitled “EphA2 Agonistic Monoclonal Antibodies and Methods of Use Thereof' filed May 12, 2003) from binding to EphA2. Briefly, the ability of labeled EA2 to bind EphA2-Fc was assayed by competitive ELISA in presence of either unlabeled EA2 or unlabeled Eph099B-208.261 (FIG. 1). […] Additionally, many of the other antibodies could inhibit EA2 binding to EphA2 as well (Table 6, column 3).
(In general: ELISA stands for enzyme-linked immunosorbent assay.)

T2 sequence (P29317 24-537 limits assumed): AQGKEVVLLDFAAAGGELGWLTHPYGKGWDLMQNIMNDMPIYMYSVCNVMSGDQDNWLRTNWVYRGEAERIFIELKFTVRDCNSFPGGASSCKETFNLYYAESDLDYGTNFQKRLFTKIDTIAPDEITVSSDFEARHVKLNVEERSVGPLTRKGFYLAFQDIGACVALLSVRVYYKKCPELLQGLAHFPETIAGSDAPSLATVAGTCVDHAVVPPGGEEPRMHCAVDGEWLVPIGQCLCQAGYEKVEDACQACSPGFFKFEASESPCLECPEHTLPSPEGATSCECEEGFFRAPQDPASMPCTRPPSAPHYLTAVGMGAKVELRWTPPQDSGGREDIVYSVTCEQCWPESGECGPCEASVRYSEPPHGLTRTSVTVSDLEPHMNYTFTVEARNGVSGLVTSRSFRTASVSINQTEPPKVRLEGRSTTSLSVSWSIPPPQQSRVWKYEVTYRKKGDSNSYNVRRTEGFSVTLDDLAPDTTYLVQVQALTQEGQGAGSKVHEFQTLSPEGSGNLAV
EphA2, sequence (P29317 24-976): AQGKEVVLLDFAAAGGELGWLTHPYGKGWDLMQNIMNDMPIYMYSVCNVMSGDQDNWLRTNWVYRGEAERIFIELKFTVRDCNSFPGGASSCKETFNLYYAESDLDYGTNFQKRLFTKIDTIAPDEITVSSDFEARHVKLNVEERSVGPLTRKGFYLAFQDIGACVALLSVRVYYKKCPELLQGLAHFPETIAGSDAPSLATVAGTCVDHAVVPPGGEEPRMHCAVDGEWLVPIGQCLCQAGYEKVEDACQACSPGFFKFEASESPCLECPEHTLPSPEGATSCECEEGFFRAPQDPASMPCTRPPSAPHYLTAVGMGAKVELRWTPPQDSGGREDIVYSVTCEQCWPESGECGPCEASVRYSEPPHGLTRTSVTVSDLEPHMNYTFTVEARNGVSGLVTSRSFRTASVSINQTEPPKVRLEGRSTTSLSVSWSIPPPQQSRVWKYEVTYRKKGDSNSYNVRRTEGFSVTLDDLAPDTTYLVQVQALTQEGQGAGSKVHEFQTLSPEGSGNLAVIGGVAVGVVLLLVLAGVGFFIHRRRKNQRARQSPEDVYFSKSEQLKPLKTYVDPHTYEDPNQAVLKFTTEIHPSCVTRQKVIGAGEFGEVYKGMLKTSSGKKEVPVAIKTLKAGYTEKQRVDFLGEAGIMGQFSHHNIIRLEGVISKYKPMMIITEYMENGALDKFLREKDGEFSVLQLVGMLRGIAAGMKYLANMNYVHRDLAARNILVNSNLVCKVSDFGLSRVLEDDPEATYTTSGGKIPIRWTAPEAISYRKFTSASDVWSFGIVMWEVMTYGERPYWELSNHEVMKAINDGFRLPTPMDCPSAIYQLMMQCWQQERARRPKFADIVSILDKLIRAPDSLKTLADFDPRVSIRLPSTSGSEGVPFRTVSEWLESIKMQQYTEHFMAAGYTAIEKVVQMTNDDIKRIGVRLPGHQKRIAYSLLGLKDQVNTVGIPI
T1 sequence (P29317 24-537 limits assumed): as the sequence (P29317 24-537 limits assumed) above

B1: Eph099B-233.152: EphA2 monoclonal antibody; hybridoma ATCC PTA-5194; VL SEQ ID NO:17, VH SEQ ID NO:21 (antibody, listed as Homo sapiens, V domains shown)
VH: EVKLVESGGGLVQPGGSLSLSCAASGFTFTDYSMNWVRQPPGKALEWLGFIRNKANDYTTEYSASVKGRFTISRDNSQSILYLQMNALRAEDSATYYCVRYPRYHAMDSWGQGTSVTVSS
VL: DIVLTQSPATLSVTPGDSVNLSCRASQSISNNLHWYQQKSHESPRLLIKYVFQSISGIPSRFSGSGSGTDFTLSINSVETEDFGMYFCQQSNSWPLTFGAGTKLELK
In the case of B1, the “Effect on cancer cell colonies already growing in soft agar” value in assay [1] was “can slow or reduce cancer cell colony growth in soft agar”. For the same molecule, the EphA2 protein level result in the assay on EphA2 is reported as “decreased EphA2 protein level; also recorded: EphA2 degradation”. For the same molecule, in the assay with immobilized EphA2-Fc, the “Koff rate compared with EA2” value is “slower Koff rates than EA2”.

B2: Eph099B-208.261: EphA2 monoclonal antibody; hybridoma ATCC PTA-4573; VL SEQ ID NO:1, VH SEQ ID NO:5 (antibody, listed as Homo sapiens, V domains shown)
VH: QVQLQQPGAELVKPGASVKLSCKASGYTFTSYWMHWVKQRPGQGLEWIGMIHPNSGSTNYNEKFKSKATLTVDKSSSTAYMRLSSLTSEDSAVYYCARGGNMVGGGYWGQGTTLTVSS
VL: QIVLTQSPALMSASPGEKVTMTCSASSSVSYMYWYQQKPRSSPKPWIYLTTNLASGVPARFSGSGSGTSYSLTISSMEAEDAATYYCQQWSSNPFTFGSGTKLEIR
Consider B2, for which the “Competition with labeled EA2 for binding to EphA2-Fc” value with EphA2-Fc is listed as “could decrease the amount of labeled EA2 binding to EphA2-Fc; also recorded: can compete with EA2 for binding to EphA2”. Moreover, in assay [1], the “Effect on cancer cell colonies already growing in soft agar” value was “can slow or reduce cancer cell colony growth in soft agar”. Also, the EphA2 protein level entry in the assay with EphA2 was “decreased EphA2 protein level”. In the assay with immobilized EphA2-Fc, the “Koff rate compared with EA2” value was “slower Koff rates than EA2”.

B3: EA2: EphA2 agonistic monoclonal antibody; ATCC deposit no. PTA-4380; co-pending application Ser. No. 10/436,783; VL SEQ ID NO:33, VH SEQ ID NO:37 (antibody, listed as Homo Sapiens, V domains shown)
VH: DVKLVESGGGLVKPGGSLKLSCAASGFTFSSYTMSWVRQTPEKRLEWVATISSGGTYTYYPDSVKGRFTISRDNAKNTLYLQMSSLKSEDTAMYYCTREAIFTYWGQGTLVTVSA
VL: DIKMTQSPSSMYASLGERVTITCKASQDINNYLSWFQQKPGKSPKTLIYRANRLVDGVPSRFSGSGSGQDYSLTISSLEYEDMGIYYCLKYDEFPYTFGGGTKLEIK
B3: the “Competition with labeled EA2 for binding to EphA2-Fc” value in the assay with EphA2-Fc was “could decrease the amount of labeled EA2 binding to EphA2-Fc”. In the assay with EphA2, the EphA2 protein level entry is listed as “decreased EphA2 protein level”.
